# Assays:
# [1] = biological target: T1, p85α (Bos taurus, UniProt P23727); assay: GST pull down assay: interaction of rIRS-1^449-664 with p85α; type: binding, bovine; conditions: for p85α binding after PKC-ζ treatment, % of control: insulin-stimulated control value set as 100%, n=3
# T1 construct: GST (N, cleaved yes); made in house; host or cells: Escherichia coli BL21
# Experimental: In vitro phosphorylated rIRS-1^449-664 was incubated with glutathione sepharose beads on a rotator for 1 h at 4° C. Pellets were washed three times with binding buffer (50 mM Tris (pH 7.4), 150 mM NaCl, 1% (v/v) Nonidet P-40, 1 mM EDTA, 1 mM NaF, 1 mM Na3VO4). Then 0.5 μg recombinant p85α was added and incubation was continued for 2 h at 4° C. After three times washing, the bound proteins were eluted with 20 μl of 2× sample buffer and separated by SDS-PAGE.
# Proteins were separated by SDS-PAGE using 8-18% gradient gels followed by transfer to nitrocellulose in a semi-dry blotting apparatus. The membrane was then blocked 60 min in Tris-buffered saline containing 0.05% Tween 20 and 1% BSA or 5% non fat dry milk and probed with appropriate antibodies (anti-IRS-1, anti-pTyr, anti-p85α). After extensive washing, the membranes were incubated with horseradish peroxidase-conjugated secondary antibodies, again washed and then the protein bands were visualized by the enhanced chemiluminescence (ECL) method on a Lumilmager workstation (Boehringer, Mannheim, Germany). All blots were quantified using the Lumilmager software. Significance of reported differences was evaluated by using the null hypothesis and t statistics for unpaired data. A p value less than 0.05 was considered to be statistically significant.
# [2] = biological target: T2, insulin receptor (Rattus norvegicus, UniProt P15127); assay: In vitro phosphorylation assay: tyrosine phosphorylation of rIRS-1^449-664 by insulin receptor; type: biochemical; conditions: rIRS-1^449-664 preincubated with 0.5 μg PKC for 30 min; insulin-stimulated value set as 100%
# T2 construct: from tissue; host or cells: rat liver
# Experimental: Rat liver was rapidly removed, immediately frozen in liquid nitrogen and processed as described (41). Briefly, 3.5 vol/wt of an ice-cold buffer consisting of 50 mM Hepes (pH 7.4), 1% Triton X-100 and 2× Complete Protease Inhibitors was added and the liver was homogenized using an Ultraturrax and a Potter-Elvehjem homogenizer, followed by centrifugation at 10,000×g for 10 min at 4° C. The resultant supernatant was slowly stirred at room temperature for 60 min, then again centrifuged at 100,000×g for 90 min at 4° C. The supernatant was then applied to an agarose-bound wheat germ agglutinin (WGA) column. The column was washed with 50 mM Hepes (pH 7.4), 0.1% Triton X-100, and bound glycoproteins were eluted from the WGA column with this buffer containing 0.3 M N-acetylglucoseamine.
# For rIRS-1^449-664 phosphorylation by insulin receptor, […] of the WGA-purified glycoprotein fraction was preincubated for 30 min at 30° C. with 100 nM of insulin in a phosphorylation buffer containing 20 mM Hepes (pH 7.4), 1 mM DTT, 10 mM MgCl2, 100 μg/ml bovine serum albumin, 0.2 mM Na3VO4, 1.7 mM CaCl2, 0.6 mg/ml phosphatidylserine, and 0.5 μg/ml okadaic acid. Autophosphorylation was initiated by the addition of ATP at a concentration of 50 μM and continued for 10 min at 30° C. Substrate phosphorylations were initiated by addition of equal volumes of […] (1 μg) with or without pre-treatment (30 min) by the PKC isoforms in the same buffer in the presence of 50 μM ATP and was allowed to proceed for 10 min at 30° C. in a final volume of 50 μl. The reaction was terminated by the addition of 6× sample buffer (0.35 M Tris-HCl (pH 6.8), 10.28% (w/v) SDS, 36% (v/v) glycerol; 0.6 M DTT, 0.012% (w/v) bromphenol blue) and boiling for 5 min. Proteins were separated by SDS-PAGE and analyzed by immunodetection with an anti-phosphotyrosine antibody after transfer to nitrocellulose. Serine/threonine phosphorylation of rIRS-1^449-664 by different PKC isoforms was assessed by incubating 1 μg rIRS-1^449-664 with 0.5 μg PKC-rb or PKC-ζ in phosphorylation buffer for 30 min at 30° C. in the presence of 50 μM ATP plus 2 μCi [γ-^32P]ATP in a volume of 20 μl. Proteins were resolved by SDS-PAGE and the stained and dried gels were subjected to autoradiography. The extent of phosphate incorporation was determined by Cerenkov counting of excised fragments.
# Proteins were separated by SDS-PAGE using 8-18% gradient gels followed by transfer to nitrocellulose in a semi-dry blotting apparatus. […] All blots were quantified using the Lumilmager software. Significance of reported differences was evaluated by using the null hypothesis and t statistics for unpaired data. […]
# [3] = biological target: T3, IR β-subunit (Rattus norvegicus, UniProt P15127); assay: Autophosphorylation of IR β-subunit in the presence of PKC isoforms; type: biochemical; conditions: autoactivated receptor incubated 10 min at 30° C. with PKC
# T3 construct: from tissue; host or cells: rat liver
# Experimental: (A) Autophosphorylation of IR was conducted as outlined in FIG. 2. Either PKC-rb or PKC-ζ was added after 10 min of autophosphorylation and incubation was continued for another 10 min. Tyrosine phosphorylation of IR β-subunit was then analyzed by immunoblotting. (B) Quantification of blots was obtained using Lumi Imager software. Data are mean values±SEM (n=4-6).
# For rIRS-1^449-664 phosphorylation by insulin receptor, […] of the WGA-purified glycoprotein fraction was preincubated for 30 min at 30° C. with 100 nM of insulin in a phosphorylation buffer containing 20 mM Hepes (pH 7.4), 1 mM DTT, 10 mM MgCl2, 100 μg/ml bovine serum albumin, 0.2 mM Na3VO4, 1.7 mM CaCl2, 0.6 mg/ml phosphatidylserine, and 0.5 μg/ml okadaic acid. Autophosphorylation was initiated by the addition of ATP at a concentration of 50 μM and continued for 10 min at 30° C. […] Proteins were separated by SDS-PAGE and analyzed by immunodetection with an anti-phosphotyrosine antibody after transfer to nitrocellulose. Serine/threonine phosphorylation of rIRS-1^449-664 by different PKC isoforms was assessed by incubating 1 μg rIRS-1^449-664 with 0.5 μg PKC-rb or PKC-ζ in phosphorylation buffer for 30 min at 30° C. in the presence of 50 μM ATP plus 2 μCi [γ-^32P]ATP in a volume of 20 μl. […] The extent of phosphate incorporation was determined by Cerenkov counting of excised fragments.
# T1 sequence (P23727 whole entry): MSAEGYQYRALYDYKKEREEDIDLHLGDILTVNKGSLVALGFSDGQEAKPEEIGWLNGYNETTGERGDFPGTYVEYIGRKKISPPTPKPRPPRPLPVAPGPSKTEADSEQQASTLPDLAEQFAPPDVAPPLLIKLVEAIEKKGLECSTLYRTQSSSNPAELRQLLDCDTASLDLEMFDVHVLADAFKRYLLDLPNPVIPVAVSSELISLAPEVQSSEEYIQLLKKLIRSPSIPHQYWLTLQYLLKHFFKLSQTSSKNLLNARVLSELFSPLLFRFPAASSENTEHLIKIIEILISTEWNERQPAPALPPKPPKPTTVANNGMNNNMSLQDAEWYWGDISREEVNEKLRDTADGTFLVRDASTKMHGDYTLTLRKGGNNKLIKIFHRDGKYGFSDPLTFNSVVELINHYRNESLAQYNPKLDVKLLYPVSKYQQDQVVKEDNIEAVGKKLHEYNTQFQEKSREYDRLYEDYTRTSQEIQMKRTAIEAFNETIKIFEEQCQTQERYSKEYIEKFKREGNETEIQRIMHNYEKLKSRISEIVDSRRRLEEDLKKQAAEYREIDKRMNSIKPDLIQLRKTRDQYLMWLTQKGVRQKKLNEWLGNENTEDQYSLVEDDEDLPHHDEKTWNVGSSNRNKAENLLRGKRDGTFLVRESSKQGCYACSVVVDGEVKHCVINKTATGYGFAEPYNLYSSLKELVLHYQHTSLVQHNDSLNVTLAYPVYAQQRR
# T2 sequence (P15127 27-759 limits assumed): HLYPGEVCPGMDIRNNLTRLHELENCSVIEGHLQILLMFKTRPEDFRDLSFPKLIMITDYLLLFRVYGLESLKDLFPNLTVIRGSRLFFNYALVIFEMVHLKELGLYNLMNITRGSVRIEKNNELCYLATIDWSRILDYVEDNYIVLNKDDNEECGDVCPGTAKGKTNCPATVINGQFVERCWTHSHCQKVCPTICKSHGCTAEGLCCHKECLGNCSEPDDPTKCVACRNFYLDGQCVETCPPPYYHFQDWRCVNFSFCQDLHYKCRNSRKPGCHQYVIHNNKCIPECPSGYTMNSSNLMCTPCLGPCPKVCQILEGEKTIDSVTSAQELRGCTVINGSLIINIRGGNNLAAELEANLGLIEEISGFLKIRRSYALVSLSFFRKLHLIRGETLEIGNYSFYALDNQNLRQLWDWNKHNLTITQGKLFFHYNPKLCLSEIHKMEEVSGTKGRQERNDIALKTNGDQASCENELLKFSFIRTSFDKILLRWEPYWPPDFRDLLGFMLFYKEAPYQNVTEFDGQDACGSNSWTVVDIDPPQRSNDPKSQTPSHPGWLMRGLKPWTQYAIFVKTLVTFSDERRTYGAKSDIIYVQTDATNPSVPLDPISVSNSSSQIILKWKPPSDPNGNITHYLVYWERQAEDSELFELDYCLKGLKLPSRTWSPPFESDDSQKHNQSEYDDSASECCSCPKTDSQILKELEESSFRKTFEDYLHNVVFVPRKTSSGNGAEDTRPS
# T3 sequence (P15127 27-759 limits assumed): as above
"p85α binding after PKC-ζ treatment, % of control [1]",Reduction of insulin-stimulated tyrosine phosphorylation of rIRS-1^449-664 by PKC pretreatment [2],"Inhibition of p85α association with rIRS-1^449-664 by PKC pretreatment ([1]; rIRS-1^449-664 preincubated with 0.5 μg PKC for 30 min, insulin-stimulated value set as 100%)",Alteration of IR autophosphorylation compared to controls [3],Molecule
28±3 % of control,,,,"S612A: serine 612 to alanine mutant of rIRS-1^449-664 GST fusion protein (protein, UniProt P35570 449-664, looked up, variant S612A, GST fusion, serine 612 to alanine mutant of rIRS-1^449-664 GST fusion protein) PPARGEEELSNYICMGGKGASTLTAPNGHYILSRGGNGHRYIPGATMGTSPALTGDEAAGAADLDNRFRKRTHSAGTSPTISHQKTPSQSSVVSIEEYTEMMPAAYPPGGGSGGRLPGYRHSAFVPTHSYPEEGLEMHHLERRGGHHRPDSSNLHTDDGYMPMAPGVAPVPSNRKGNGDYMPMSPKSVSAPQQIINPIRRHPQRVDPNGYMMMSPS"
43±4 % of control,,,,"S570A: serine 570 to alanine mutant of rIRS-1^449-664 GST fusion protein (protein, UniProt P35570 449-664, looked up, variant S570A, GST fusion, serine 570 to alanine mutant of rIRS-1^449-664 GST fusion protein) PPARGEEELSNYICMGGKGASTLTAPNGHYILSRGGNGHRYIPGATMGTSPALTGDEAAGAADLDNRFRKRTHSAGTSPTISHQKTPSQSSVVSIEEYTEMMPAAYPPGGGSGGRLPGYRHAAFVPTHSYPEEGLEMHHLERRGGHHRPDSSNLHTDDGYMPMSPGVAPVPSNRKGNGDYMPMSPKSVSAPQQIINPIRRHPQRVDPNGYMMMSPS"
,46±5%,81±1%,No significant alteration,"PKC-ζ: recombinant human protein kinase C-ζ, obtained from Calbiochem (protein) MPSRTGPKMEGSGGRVRLKAHYGGDIFITSVDAATTFEELCEEVRDMCRLHQQHPLTLKWVDSEGDPCTVSSQMELEEAFRLARQCRDEGLIIHVFPSTPEQPGLPCPGEDKSIYRRGARRWRKLYRANGHLFQAKRFNRRAYCGQCSERIWGLARQGYRCINCKLLVHKRCHGLVPLTCRKHMDSVMPSQEPPVDDKNEDADLPSEETDGIAYISSSRKHDSIKDDSEDLKPVIDGMDGIKISQGLGLQDFDLIRVIGRGSYAKVLLVRLKKNDQIYAMKVVKKELVHDDEDIDWVQTEKHVFEQASSNPFLVGLHSCFQTTSRLFLVIEYVNGGDLMFHMQRQRKLPEEHARFYAAEICIALNFLHERGIIYRDLKLDNVLLDADGHIKLTDYGMCKEGLGPGDTTSTFCGTPNYIAPEILRGEEYGFSVDWWALGVLMFEMMAGRSPFDIITDNPDMNTEDYLFQVILEKPIRIPRFLSVKASHVLKGFLNKDPKERLGCRPQTGFSDIKSHAFFRSIDWDLLEKKQALPPFQPQITDDYGLDNFDTQFTSEPVQLTPDDEDAIKRIDQSEFEGFEYINPLLLSTEESV"

# Source: patent publication US7803571B2, “Method for identifying IRS inhibitors or agonists” (Sanfoi-Aventis Deutschland GmbH, priority 2003, dated 2010)
